Tests used:
[1] = biological target: SARS-CoV main protease Δ(297–306) (SARS-CoV); experiment: AUC
[2] = biological target: SARS-CoV main protease Δ(298–306) (SARS-CoV); experiment: AUC
[3] = biological target: SARS-CoV main protease Δ(301–306) (SARS-CoV)
[4] = biological target: SARS-CoV main protease Δ(302–306) (SARS-CoV); experiment: AUC
[5] = biological target: SARS-CoV main protease Δ(303–306) (SARS-CoV)
[6] = biological target: SARS-CoV main protease Δ(303–306) (SARS-CoV); experiment: AUC
[7] = biological target: SARS-CoV main protease Δ(304–306) (SARS-CoV)
[8] = biological target: SARS-CoV main protease Δ(304–306) (SARS-CoV); experiment: AUC
[9] = biological target: SARS-CoV main protease Δ(305–306) (SARS-CoV)
[10] = biological target: SARS-CoV main protease Δ(305–306) (SARS-CoV); experiment: AUC
[11] = biological target: SARS-CoV main protease Δ(306) (SARS-CoV)
[12] = biological target: SARS-CoV main protease Δ(306) (SARS-CoV); experiment: AUC

SARS-CoV main protease Δ(297–306) (domain or fragment)
Kd [1]: 393000 nM | koff [1]: 123 s⁻¹

SARS-CoV main protease Δ(298–306) (domain or fragment)
Kd [2]: 313000 nM | koff [2]: 36 s⁻¹

SARS-CoV main protease Δ(301–306) (domain or fragment)
catalytic constant kcat for the 11-mer peptide ABZ-…-DNP [3]: 0.025 s⁻¹

SARS-CoV main protease Δ(302–306) (domain or fragment)
koff [4]: 0.01 s⁻¹

SARS-CoV main protease Δ(303–306) (domain or fragment)
catalytic constant kcat for the 11-mer peptide ABZ-…-DNP [5]: 0.022 s⁻¹ | Kd [6]: 340 nM

SARS-CoV main protease Δ(304–306) (domain or fragment)
catalytic constant kcat for the 11-mer peptide ABZ-…-DNP [7]: 0.027 s⁻¹ | koff [8]: 0.01 s⁻¹

SARS-CoV main protease Δ(305–306) (domain or fragment)
catalytic constant kcat for the 11-mer peptide ABZ-…-DNP [9]: 0.039 s⁻¹ | Kd [10]: 80 nM | koff [10]: 0.14 s⁻¹

SARS-CoV main protease Δ(306) (domain or fragment)
catalytic constant kcat for the 11-mer peptide ABZ-…-DNP [11]: 0.043 s⁻¹ | Kd [12]: 100 nM | koff [12]: 0.6 s⁻¹

— paper PMC7094404 (Archives of Biochemistry and Biophysics, 2008)
